Laboratory results taken from patent US20090226434A1.

Tests used:
[1] = molecular target: FcγRIIIa (CD16) on Natural Killer (NK) cells (UniProt P08637); assay: FACS on NK cells (CD56+) in PBMCs, antibody 20 µg/ml, FITC anti-human IgG (Fc) detection
[2] = molecular target: afucosylated anti-CCR5 antibody (afucosylated Ab); assay: SPR solution competition: soluble CD16a (0-1000 nM) inhibits binding of 10 nM antibody to immobilized His-CD16a
[3] = molecular target: wildtype anti-CCR5 antibody (WT Ab, 8% afucosylated); assay: as above
[4] = molecular target: Positive Control (Table 3); assay: SPR solution competition: soluble CD16a (0-1000 nM) inhibits binding of 10 nM analyte to immobilized His-CD16a

Sequence of UniProt P08637 (P08637 17-254 limits assumed): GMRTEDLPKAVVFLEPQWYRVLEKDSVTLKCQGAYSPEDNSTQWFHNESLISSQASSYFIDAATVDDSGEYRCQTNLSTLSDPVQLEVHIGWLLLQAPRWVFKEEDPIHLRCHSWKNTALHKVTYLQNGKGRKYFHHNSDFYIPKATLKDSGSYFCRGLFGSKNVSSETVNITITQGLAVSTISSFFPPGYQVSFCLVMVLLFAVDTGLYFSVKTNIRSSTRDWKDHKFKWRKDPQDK

IC50 [2]	IC50 [3]	IC50 [4]	Substance	Bmax compared to 100% Bmax for human IgG1 [1]
–	–	–	human IgG4 (The Binding Site) (antibody)	< 30%
9 nM	14 nM	10 nM	soluble CD16a (from UniProt P08637 17-208) (receptor)	–
